We go through 4 molecules from publication PMC10528418 (Molecular cell, 2023).

Sequences and labels used below:
T1: TFIIIC subunit τ138 (S. cerevisiae, UniProt P34111 1-1160)
T1 sequence (looked up): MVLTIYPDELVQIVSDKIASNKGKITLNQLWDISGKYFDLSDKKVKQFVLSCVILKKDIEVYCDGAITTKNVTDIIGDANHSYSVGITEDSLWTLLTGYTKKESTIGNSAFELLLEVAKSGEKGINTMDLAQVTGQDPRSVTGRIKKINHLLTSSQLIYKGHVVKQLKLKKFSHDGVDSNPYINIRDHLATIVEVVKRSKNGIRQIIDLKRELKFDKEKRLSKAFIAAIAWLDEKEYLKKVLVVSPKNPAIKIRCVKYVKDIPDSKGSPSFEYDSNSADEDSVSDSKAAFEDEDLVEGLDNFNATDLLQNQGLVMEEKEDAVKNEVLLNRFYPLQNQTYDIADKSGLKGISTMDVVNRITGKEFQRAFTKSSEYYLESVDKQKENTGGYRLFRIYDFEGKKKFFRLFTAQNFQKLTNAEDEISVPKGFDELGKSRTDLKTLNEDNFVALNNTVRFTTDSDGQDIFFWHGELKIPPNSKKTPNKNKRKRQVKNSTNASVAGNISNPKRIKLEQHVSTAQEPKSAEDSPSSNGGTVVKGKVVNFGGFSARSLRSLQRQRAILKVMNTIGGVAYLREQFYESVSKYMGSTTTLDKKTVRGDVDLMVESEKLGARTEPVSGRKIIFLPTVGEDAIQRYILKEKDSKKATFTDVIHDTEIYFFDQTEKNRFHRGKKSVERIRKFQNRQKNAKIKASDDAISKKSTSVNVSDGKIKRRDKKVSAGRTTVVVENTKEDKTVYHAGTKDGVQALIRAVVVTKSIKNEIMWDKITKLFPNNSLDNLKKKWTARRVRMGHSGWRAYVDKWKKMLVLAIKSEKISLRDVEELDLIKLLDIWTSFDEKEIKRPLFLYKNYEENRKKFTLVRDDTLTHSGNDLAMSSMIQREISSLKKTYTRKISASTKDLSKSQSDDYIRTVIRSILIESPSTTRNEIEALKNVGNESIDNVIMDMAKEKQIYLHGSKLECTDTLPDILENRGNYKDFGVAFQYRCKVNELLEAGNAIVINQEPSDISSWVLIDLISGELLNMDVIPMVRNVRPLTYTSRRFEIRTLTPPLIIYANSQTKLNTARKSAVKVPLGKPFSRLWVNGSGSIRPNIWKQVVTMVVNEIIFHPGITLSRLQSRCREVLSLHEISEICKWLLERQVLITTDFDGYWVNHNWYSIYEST

B1: TFIIIC subunit τ95 (natural protein, S. cerevisiae, UniProt P32367 1-649, looked up)
chain: MPVEEPLATLSSIPDSSADQAPPLIADEFTLDLPRIPSLELPLNVSTKHSSIQKAIKMCGGIEKVKEAFKEHGPIESQHGLQLYLNDDTDSDGSKSYFNEHPVIGKRVPFRDESVILKVTMPKGTLSKNNNSVKDSIKSLKDSNKLRVTPVSIVDNTIKFREMSDFQIKLDNVPSAREFKSSFGSLEWNNFKSFVNSVPDNDSQPQENIGNLILDRSVKIPSTDFQLPPPPKLSMVGFPLLYKYKANPFAKKKKNGVTEVKGTYIKNYQLFVHDLSDKTVIPSQAHEQVLYDFEVAKKTKVYPGTKSDSKFYESLEECLKILRELFARRPIWVKRHLDGIVPKKIHHTMKIALALISYRFTMGPWRNTYIKFGIDPRSSVEYAQYQTEYFKIERKLLSSPIVKKNVPKPPPLVFESDTPGGIDSRFKFDGKRIPWYLMLQIDLLIGEPNIAEVFHNVEYLDKANELTGWFKELDLVKIRRIVKYELGCMVQGNYEYNKYKLKYFKTMLFVKESMVPENKNSEEGMGVNTNKDADGDINMDAGSQMSSNAIEEDKGIAAGDDFDDNGAITEEPDDAALENEEMDTDQNLKVPASIDDDVDDVDADEEEQESFDVKTASFQDIINKIAKLDPKTAETMKSELKGFVDEVDL
B2: TFIIIC subunit τ91 (natural protein, S. cerevisiae, UniProt Q06339 1-672, looked up)
chain: MAVIPAKKRGRPRKSVVAEVPYDSLASPVSENSGSKRPRRNASKKAVANFAQLVHAGRDDVINTTQVNNVDDTDDDDFVLNDEGDGEESDNVEIEFENELESTKNEVADLNSSGSGASVRPSGRRNTVQKLRLKKNSTKNMKSSSPGSSLGQKGRPIRLLKDLSSARDKIERIYGLNKEKLLLLAKVKEGFETSVFDFPFKNIQPDSPYFVCLDPPCKKESAYNKVIGDKNRTVYHEINKTEFENMIKLRTKRLKLLIGEVDAEVSTGDKIEFPVLANGKRRGFIYNVGGLVTDIAWLNIEENTDIGKDIQYLAVAVSQYMDEPLNEHLEMFDKEKHSSCIQIFKMNTSTLHCVKVQTIVHSFGEVWDLKWHEGCHAPHLVGCLSFVSQEGTINFLEIIDNATDVHVFKMCEKPSLTLSLADSLITTFDFLSPTTVVCGFKNGFVAEFDLTDPEVPSFYDQVHDSYILSVSTAYSDFEDTVVSTVAVDGYFYIFNPKDIATTKTTVSRFRGSNLVPVVYCPQIYSYIYSDGASSLRAVPSRAAFAVHPLVSRETTITAIGVSRLHPMVLAGSADGSLIITNAARRLLHGIKNSSATQKSLRLWKWDYSIKDDKYRIDSSYEVYPLTVNDVSKAKIDAHGINITCTKWNETSAGGKCYAFSNSAGLLTLEYLS
B3: TFIIIC subunit τ131 (natural protein, S. cerevisiae, UniProt P33339 1-1025, looked up)
chain: MAAGKLKKEQQNQSAERESADTGKVNDEDEEHLYGNIDDYKHLIQDEEYDDEDVPHDLQLSEDEYNSERDSSLLAEFSDYGEISEDDEEDFMNAIREASNFKVKKKKKNDKGKSYGRQRKERVLDPEVAQLLSQANEAFVRNDLQVAERLFNEVIKKDARNFAAYETLGDIYQLQGRLNDCCNSWFLAAHLNASDWEFWKIVAILSADLDHVRQAIYCFSRVISLNPMEWESIYRRSMLYKKTGQLARALDGFQRLYMYNPYDANILRELAILYVDYDRIEDSIELYMKVFNANVERREAILAALENALDSSDEESAAEGEDADEKEPLEQDEDRQMFPDINWKKIDAKYKCIPFDWSSLNILAELFLKLAVSEVDGIKTIKKCARWIQRRESQTFWDHVPDDSEFDNRRFKNSTFDSLLAAEKEKSYNIPIDIRVRLGLLRLNTDNLVEALNHFQCLYDETFSDVADLYFEAATALTRAEKYKEAIDFFTPLLSLEEWRTTDVFKPLARCYKEIESYETAKEFYELAIKSEPDDLDIRVSLAEVYYRLNDPETFKHMLVDVVEMRKHQVDETLHRISNEKSSNDTSDISSKPLLEDSKFRTFRKKKRTPYDAERERIERERRITAKVVDKYEKMKKFELNSGLNEAKQASIWINTVSELVDIFSSVKNFFMKSRSRKFVGILRRTKKFNTELDFQIERLSKLAEGDSVFEGPLMEERVTLTSATELRGLSYEQWFELFMELSLVIAKYQSVEDGLSVVETAQEVNVFFQDPERVKMMKFVKLAIVLQMDDEEELAENLRGLLNQFQFNRKVLQVFMYSLCRGPSSLNILSSTIQQKFFLRQLKAFDSCRYNTEVNGQASITNKEVYNPNKKSSPYLYYIYAVLLYSSRGFLSALQYLTRLEEDIPDDPMVNLLMGLSHIHRAMQRLTAQRHFQIFHGLRYLYRYHKIRKSLYTDLEKQEADYNLGRAFHLIGLVSIAIEYYNRVLENYDDGKLKKHAAYNSIIIYQQSGNVELADHLMEKYLSI
B4: S. cerevisiae TFIIIA (natural protein)
chain: MGGEVLNNEGMPLAELKQETIPISRSESSESLNSLTSTRSSSSNRPKTYFCDYDGCDKAFTRPSILTEHQLSVHQGLRAFQCDKCAKSFVKKSHLERHLYTHSDTKPFQCSYCGKGVTTRQQLKRHEVTHTKSFICPEEGCNLRFYKHPQLRAHILSVHLHKLTCPHCNKSFQRPYRLRNHISKHHDPEVENPYQCTFAGCCKEFRIWSQLQSHIKNDHPKLKCPICSKPCVGENGLQMHMIIHDDSLVTKNWKCHICPDMSFSRKHDLLTHYGSIHTEEDIPLELKYKISDIQQLVQDHGVQLGNSKHSNEQDEEKISNRLRKRRKLTENNNVEFLQNEVDLEKRLESGENGLNLLLNTVGRKYRCFYNNCSRTFKTKEKYEKHIDKHKVHELKLKILQEKEENKTLVDQNHKEPFIIQKETQSAGDK

For the experiment “TFIIIC subunit τ131”, the target named is B3. The experiment can be described thus: cryo-EM structure.
The target in a further experiment is T1, TFIIIC subunit τ138. In words: cryo-EM structure.

Regarding B1, the binding result with TFIIIC subunit τ131 and with TFIIIC subunit τ138 was “binds” each time.

As for B2, the binding result with TFIIIC subunit τ131 is “binds”.

In the case of B3, the binding result with TFIIIC subunit τ138 was “binds”.

On to B4, for which the binding result with TFIIIC subunit τ138 is listed as “binds”.
